Assay results from patent publication US20250206834A1 (published 2025).
Read-outs that look alike come from different tables or passages of the source.

T1: human CEACAM5 on cells (human, UniProt P06731 35-685)
T1 chain: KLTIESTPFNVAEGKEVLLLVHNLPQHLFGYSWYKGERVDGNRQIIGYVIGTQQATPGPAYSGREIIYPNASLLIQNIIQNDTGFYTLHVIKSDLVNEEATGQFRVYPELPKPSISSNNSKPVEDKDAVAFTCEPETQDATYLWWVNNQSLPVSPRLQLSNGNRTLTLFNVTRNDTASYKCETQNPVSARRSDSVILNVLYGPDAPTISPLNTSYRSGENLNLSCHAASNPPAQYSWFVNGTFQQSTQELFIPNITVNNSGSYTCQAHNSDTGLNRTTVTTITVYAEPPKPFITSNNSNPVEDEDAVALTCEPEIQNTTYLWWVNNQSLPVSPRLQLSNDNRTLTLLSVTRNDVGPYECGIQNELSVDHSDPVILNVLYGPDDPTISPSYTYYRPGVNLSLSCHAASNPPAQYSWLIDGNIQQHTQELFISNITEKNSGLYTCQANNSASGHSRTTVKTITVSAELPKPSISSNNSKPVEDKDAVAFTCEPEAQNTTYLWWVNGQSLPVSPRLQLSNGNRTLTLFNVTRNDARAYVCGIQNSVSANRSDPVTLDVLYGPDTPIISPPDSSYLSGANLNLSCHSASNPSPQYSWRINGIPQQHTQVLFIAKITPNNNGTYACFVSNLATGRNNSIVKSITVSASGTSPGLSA


Tests used:
human 4-1BB [1] = molecular target: T2, human 4-1BB (human, UniProt Q07011 24-255); experiment: FACS cell binding
human CEACAM5 on cells [2] = molecular target: T1, human CEACAM5 on cells; experiment: FACS cell binding; MKN-45 cells
human CEACAM5 on cells [3] = molecular target: T1, human CEACAM5 on cells; experiment: FACS cell binding; MKN-45 cells
human 4-1BB [4] = molecular target: T2, human 4-1BB; experiment: FACS cell binding; plot key prints IMMU130-263-1-3
human 4-1BB [5] = molecular target: T2, human 4-1BB; experiment: FACS cell binding; remark: listed apart in the source

T2 sequence (Q07011 24-255): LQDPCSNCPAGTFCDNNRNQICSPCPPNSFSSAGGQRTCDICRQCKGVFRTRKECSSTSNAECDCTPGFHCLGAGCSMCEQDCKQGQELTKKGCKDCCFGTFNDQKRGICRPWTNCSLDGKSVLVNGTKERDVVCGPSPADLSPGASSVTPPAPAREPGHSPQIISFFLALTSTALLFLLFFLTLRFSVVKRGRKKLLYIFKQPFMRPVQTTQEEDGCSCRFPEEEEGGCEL

EC50 (human 4-1BB [1])	EC50 (human CEACAM5 on cells [2])	EC50 (human CEACAM5 on cells [3])	EC50 (human 4-1BB [4])	EC50 (human 4-1BB [5])	Binder
0.58 nM	5.38 nM	8.47 nM	1.23 nM		IMMU130-263-1-3 (bispecific antibody) heavy (part 1 of 2): EVQLVESGGGVVQPGRSLRLSCSASGFDFTTYWMSWVRQAPGKGLEWIGEIHPDSSTINYAPSLKDRFTISRDNAKNTLFLQMDSLRPEDTGVYFCASLYFGFPWFAYWGQGTPVTVSS heavy (part 2 of 2): GGGGSGGGGSGGGGSGGGGSEVQLLESGGGLVQPGGSLRLSCAASGFTFSSSAMSWARQTPGKGFEWVSGIYSGGSTYYTESVKDRFTISRDNSKNTVYLQMNSLKPEDTAVYYCATWGTLRFGVWAEYDHWGQGTQVTVSS light: DIQLTQSPSSLSASVGDRVTITCKASQDVGTSVAWYQQKPGKAPKLLIYWTSTRHTGVPSRFSGSGSGTDFTFTISSLQPEDIATYYCQQYSLYRSFGQGTKVEIK
	3.48 nM	5.31 nM			Labetuzumab (antibody, V domains shown) VH: EVQLVESGGGVVQPGRSLRLSCSASGFDFTTYWMSWVRQAPGKGLEWIGEIHPDSSTINYAPSLKDRFTISRDNAKNTLFLQMDSLRPEDTGVYFCASLYFGFPWFAYWGQGTPVTVSS VL: DIQLTQSPSSLSASVGDRVTITCKASQDVGTSVAWYQQKPGKAPKLLIYWTSTRHTGVPSRFSGSGSGTDFTFTISSLQPEDIATYYCQQYSLYRSFGQGTKVEIK
		7.75 nM		1.2 nM	optimized bispecific antibody with 263 huNb-1-3_2 (bispecific antibody) heavy (part 1 of 2): EVQLVESGGGVVQPGRSLRLSCSASGFDFTTYWMSWVRQAPGKGLEWIGEIHPDSSTINYAPSLKDRFTISRDNAKNTLFLQMDSLRPEDTGVYFCASLYFGFPWFAYWGQGTPVTVSS heavy (part 2 of 2): GGGGSGGGGSGGGGSGGGGSEVQLVESGGGLVQPGGSLRLSCAASGFTFSSSAMSWARQAPGKGFEWVSGIYSGGSTYYTESVKDRFTISRDNAKNTVYLQMNSLKPEDTAVYYCATWGTLRFGVWAEYDHWGQGTLVTVSS light: DIQLTQSPSSLSASVGDRVTITCKASQDVGTSVAWYQQKPGKAPKLLIYWTSTRHTGVPSRFSGSGSGTDFTFTISSLQPEDIATYYCQQYSLYRSFGQGTKVEIK
0.37 nM					VV02-1SP (1)-73 huNb_1_3 (Fc fusion) VHH: EVDLVESGGGLVQPGGSLRLSCAVSGFTFSSSAMSWARQAPGKEFEWVSSIYSSGKTYYVESVKGRFTISRDNAKNTVYLQMSSLRPEDTAVYYCATWKTLRVGVWDESDYWGQGTLVTVSS
				0.53 nM	VV02-1LP-263 huNb_1_3 (Fc fusion) VHH: EVQLLESGGGLVQPGGSLRLSCAASGFTFSSSAMSWARQTPGKGFEWVSGIYSGGSTYYTESVKDRFTISRDNSKNTVYLQMNSLKPEDTAVYYCATWGTLRFGVWAEYDHWGQGTQVTVSS
		7.34 nM			IMMU130-263-1-3_1 (bispecific antibody, V domains shown) VH: EVQLVESGGGVVQPGRSLRLSCSASGFDFTTYWMSWVRQAPGKGLEWIGEIHPDSSTINYAPSLKDRFTISRDNAKNTLFLQMDSLRPEDTGVYFCASLYFGFPWFAYWGQGTPVTVSS VL: DIQLTQSPSSLSASVGDRVTITCKASQDVGTSVAWYQQKPGKAPKLLIYWTSTRHTGVPSRFSGSGSGTDFTFTISSLQPEDIATYYCQQYSLYRSFGQGTKVEIK VHH: EVQLVESGGGLVQPGGSLRLSCAASGFTFSSSAMSWARQAPGKGFEWVSGIYSGGSTYYTESVKDRFTISRDNSKNTVYLQMNSLKPEDTAVYYCATWGTLRFGVWAEYDHWGQGTQVTVSS
